Test results reported in the supplement of paper PMC6757056.
± gives the standard deviation of the averaged measurements.

B1: library; a variant is named by its letters at N, in order (parent)
chain: GCUGUCACCGAGAAACUGUGAAGUAUAUCUUAAACCUGGGCACUUAAAAGAUAUAUGGAGUUAGUAGUGCAACCUGCUCGGUCUGAUGAGUCCNNNNNNGGACGAAACAGC

Key:
cyclic di-GMP [1] = variants of: B1; experiment: FACS-Seq fitted mean relative fluorescence mCherry/BFP without ligand (log10 relative fluorescence); HEK293T; ligand: cyclic di-GMP (c-di-GMP-II aptamer); higher = higher reporter protein expression; conditions: ligand present: no
Summary of the method: (§1)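 An mCherry reporter containing the ribozyme switch and an EF1α-BFP marker were introduced by lentivirus into HEK293T libraries. Cells were enriched, incubated 48 h with or without ligand, sorted into 6 bins by mCherry/BFP, and bin genomic DNA was PCR-amplified, barcoded and sequenced on MiSeq. Fluorescence represents the normalized fitted normal mean of the bin counts. Fitting was done on log10(mCherry/BFP), scaling to five spiked-in control ribozymes.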

cyclic di-GMP [2] = variants of: B1; experiment: normalized RNA/DNA level without ligand (relative to sTRSVctl = 100) (log10 (% of sTRSVctl)); HEK293T; ligand: cyclic di-GMP (c-di-GMP-II aptamer); higher = less ribozyme self-cleavage, higher mRNA level; conditions: reporter: mCherry (pCS4076), ligand present: no
Summary of the method: (§2)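 RNA level was computed as RNA reads over DNA reads divided by a spiked-in non-cleaving sequence or by the top sequences, then scaled and log-transformed. Scaling was ×100 with log10, the top group was 25 sequences, and the threshold was ≥100 DNA reads. The reads came from HEK293T cells transfected at 4 µg per 6-well well with ribozyme switch library plasmids (mCherry, or eGFP in some ligand experiments). Total RNA was extracted with EDTA 72 h after transfection, with any ligand added 1 h before it.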

cyclic di-GMP [3] = variants of: B1; experiment: FACS-Seq fitted mean relative fluorescence mCherry/BFP with ligand (log10 relative fluorescence); HEK293T; ligand: cyclic di-GMP (c-di-GMP-II aptamer); ligand concentration (+) FACS-Seq: 1 mM; higher = higher reporter protein expression; conditions: ligand present: yes
Summary of the method: as §1

cyclic di-GMP [4] = variants of: B1; experiment: normalized RNA/DNA level with ligand (relative to sTRSVctl = 100) (log10 (% of sTRSVctl)); HEK293T; ligand: cyclic di-GMP (c-di-GMP-II aptamer); ligand concentration (+) RNA-Seq: 1 mM; higher = less ribozyme self-cleavage, higher mRNA level; conditions: reporter: mCherry (pCS4076), ligand present: yes
Summary of the method: as §2

Row | Variant | FACS-Seq fitted mean (log10) (cyclic di-GMP [1]) | normalized RNA/DNA level without ligand (log10) (cyclic di-GMP [2]) | FACS-Seq fitted mean (log10) (cyclic di-GMP [3]) | normalized RNA/DNA level with ligand (log10) (cyclic di-GMP [4])
1 | CUCUAG | 0.319 ± 0.13 | 1.764 ± 0.015 | 0.4467 ± 0.0016 | 1.83 ± 0.11
2 | GAAAUG | -0.4346 ± 0.0037 | 1.55 ± 0.067 | -0.122 ± 0.1 | 1.71 ± 0.11
3 | GCGGAG | -0.301 ± 0.022 | 1.53 ± 0.13 | -0.076 ± 0.067 | 1.7 ± 0.055
4 | GUGUUC | -0.72254 ± 0.00049 | 1.39 ± 0.14 | -0.527 ± 0.032 | 1.57 ± 0.14
5 | CCACAU | 0.0115 ± 0.077 | 1.54 ± 0.052 | 0.346 ± 0.031 | 1.76 ± 0.11
6 | AGAACA | 0.105 ± 0.17 | 1.53 ± 0.036 | 0.348 ± 0.0047 | 1.72 ± 0.13
7 | AGAACU | -0.833 ± 0.11 | 1.68 ± 0.031 | -0.561 ± 0.02 | 1.82 ± 0.11
8 | UAUAAA | -0.114 ± 0.051 | 1.66 ± 0.026 | 0.111 ± 0.097 | 1.79 ± 0.13
9 | AUGAGU | -0.416 ± 0.026 | 1.54 ± 0.019 | -0.0836 ± 0.048 | 1.73 ± 0.14
10 | GUGGAU | -0.528 ± 0.045 | 1.52 ± 0.093 | -0.192 ± 0.024 | 1.72 ± 0.072
11 | AUGUGU | -0.484 ± 0.16 | 1.53 ± 0.043 | -0.314 ± 0.021 | 1.77 ± 0.11
12 | GCGUAG | -0.637 ± 0.047 | 1.67 ± 0.074 | -0.348 ± 0.095 | 1.8 ± 0.085
13 | ACAUAG | -0.486 ± 0.035 | 1.41 ± 0.11 | -0.109 ± 0.082 | 1.66 ± 0.05
14 | ACAUAC | -0.256 ± 0.19 | 1.57 ± 0.056 | -0.161 ± 0.28 | 1.76 ± 0.097
15 | AGAAAG | -0.223 ± 0.077 | 1.5 ± 0.058 | 0.0417 ± 0.031 | 1.69 ± 0.1
16 | CCCAUA | -0.471 ± 0.0071 | 1.4 ± 0.11 | -0.164 ± 0.0037 | 1.65 ± 0.09
17 | UUUAAC | 0.0586 ± 0.15 | 1.7 ± 0.022 | 0.264 ± 0.026 | 1.84 ± 0.099
18 | UAAGUG | 0.0931 ± 0.039 | 1.61 ± 0.022 | 0.27 ± 0.01 | 1.78 ± 0.12
